Literature values in article PMC7023894.
pKd: −log10 of the molar value.

Biological target: Ezrin FERM (Homo sapiens) (UniProt P15311)
UniProt P15311, sequence (P15311 1-299): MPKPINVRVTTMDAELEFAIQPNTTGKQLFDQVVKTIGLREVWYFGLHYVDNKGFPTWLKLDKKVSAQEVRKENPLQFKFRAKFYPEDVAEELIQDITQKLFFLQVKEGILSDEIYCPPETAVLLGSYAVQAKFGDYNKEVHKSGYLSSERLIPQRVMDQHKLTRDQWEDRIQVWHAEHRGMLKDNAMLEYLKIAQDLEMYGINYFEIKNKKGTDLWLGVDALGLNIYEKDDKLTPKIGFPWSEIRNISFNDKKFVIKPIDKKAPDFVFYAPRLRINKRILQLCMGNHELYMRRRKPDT

Substance: Transgelin-2 CLR region (from UniProt P37802)
- pKd: 7.13
